B1: Azoarcus group I ribozyme (parent)
chain: GUGCCUUGCGCCGGGAAACCACGCAAGGGAUGGUGUCAAAUUCGGCGAAACCUAAGCGCCCGCCCGGGCGUAUGGCAACGCCGAGCCAAGCUUCGGCGCCUGCGCCGAUGAAGGUGUAGAGACUAGACGGCACCCACCUAAGGCAAACGCUAUGGUGAAGGCAUAGUCCAGGGAGUGGCGAAAGUCACACAAACCGG

Variants of: B1
Experiment: reverse-splicing fitness (ratio to wild type); higher = more active; in vitro selection; Mg2+ level not given
How it was run: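 An in vitro group I ribozyme library with randomized positions was T7-transcribed and gel-purified. In triplicate, 10 pmol RNA in EPPS pH 7.5 was reacted with 50 pmoles of a 30-nt RNA substrate for 1 h at 37 °C across several added MgCl2 levels (1–48 mM), then stopped with EDTA. Products were reverse transcribed from a substrate-complementary primer, PCR-amplified and sequenced (HiSeq 4000). Fitness is a variant's read proportion after selection over that before, normalised to wild type.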
With C82U A120C A145U C150A U176A the reverse-splicing fitness was 0.0114. With C82U A120C A145U C150A U176C the reverse-splicing fitness was 0.0137. Work on C82U A120C A145U C150A U176G yielded a reverse-splicing fitness of 0.00478. With C82U A120C A145G C169G U176G the reverse-splicing fitness was 0.00346. C82U A120C A145G C169G U176A gave a reverse-splicing fitness of 0.0152. In the case of C82U A120C A145G C169G U176C, the reverse-splicing fitness is reported as 0.0181. C82U A120G A145C C150G C169A U176G showed a reverse-splicing fitness of 0.00406. C82U A120G A145C C150G C169A U176A showed a reverse-splicing fitness of 0.00717. Variant C82U A120G A145C C150G C169A U176C has a reverse-splicing fitness of 0.00565. In the case of C82U A120C C169U, the reverse-splicing fitness is reported as 0.0213. C82U A120C C169G gave a reverse-splicing fitness of 0.00705. With C82U A120C C169A the reverse-splicing fitness was 0.00809. C82U A120C C150G gave a reverse-splicing fitness of 0.0174. Work on C82U A120C C150U yielded a reverse-splicing fitness of 0.0835. Variant C82U A120C C150A has a reverse-splicing fitness of 0.0251. For C82U A120C C150A C169G U176G, the reverse-splicing fitness was 0.00373. C82U A120C C150A C169G U176C showed a reverse-splicing fitness of 0.0164. In the case of C82U A120C C150A C169G U176A, the reverse-splicing fitness is reported as 0.0156. With C82U A120C A145G U176A the reverse-splicing fitness was 0.0488. C82U A120C A145G U176C gave a reverse-splicing fitness of 0.0715. C82U A120C A145G U176G gave a reverse-splicing fitness of 0.00954. Variant C82U A120C A145U C169U has a reverse-splicing fitness of 0.0193. In the case of C82U A120C A145U C169G, the reverse-splicing fitness is reported as 0.00567. Work on C82U A120C A145U C169A yielded a reverse-splicing fitness of 0.00492. Variant C82U A120C A145U C150A C169A U176C has a reverse-splicing fitness of 0.00669. Variant C82U A120C A145U C150A C169A U176G has a reverse-splicing fitness of 0.00386. In the case of C82U A120C A145U C150A C169A U176A, the reverse-splicing fitness is reported as 0.0094. Variant C82U A120C A145C C169U U176C has a reverse-splicing fitness of 0.0127. Variant C82U A120C A145C C169U U176A has a reverse-splicing fitness of 0.0191. In the case of C82U A120C A145C C169U U176G, the reverse-splicing fitness is reported as 0.00368. C82U A120C C169G U176A showed a reverse-splicing fitness of 0.0123. In the case of C82U A120C C169G U176G, the reverse-splicing fitness is reported as 0.00419. With C82U A120C C169G U176C the reverse-splicing fitness was 0.0125. Variant C82U A120G A145C C150A C169U has a reverse-splicing fitness of 0.00698. In the case of C82U A120G A145C C150A C169A, the reverse-splicing fitness is reported as 0.00745. Variant C82U A120G A145C C150A C169G has a reverse-splicing fitness of 0.00758. For C82U A120G A145C C150G C169G U176C, the reverse-splicing fitness was 0.00713. With C82U A120G A145C C150G C169G U176G the reverse-splicing fitness was 0.00336. Work on C82U A120G A145C C150G C169G U176A yielded a reverse-splicing fitness of 0.00838. Work on C82U A120C A145G C150A C169G yielded a reverse-splicing fitness of 0.00829. Variant C82U A120C A145G C150A C169A has a reverse-splicing fitness of 0.00919. Variant C82U A120C A145G C150A C169U has a reverse-splicing fitness of 0.0116. C82U A120C A145U C150A C169U U176A showed a reverse-splicing fitness of 0.0155. In the case of C82U A120C A145U C150A C169U U176G, the reverse-splicing fitness is reported as 0.00413. C82U A120C A145U C150A C169U U176C gave a reverse-splicing fitness of 0.0164. C82U A120C A145U C150U C169A U176A gave a reverse-splicing fitness of 0.0108. Variant C82U A120C A145U C150U C169A U176C has a reverse-splicing fitness of 0.00582. For C82U A120C A145U C150U C169A U176G, the reverse-splicing fitness was 0.00423. For C82U A120C A145U C150U C169A, the reverse-splicing fitness was 0.0082. With C82U A120C A145U C150U C169U the reverse-splicing fitness was 0.0166. With C82U A120C A145U C150U C169G the reverse-splicing fitness was 0.00708. With C82U A111U C169A U176C the reverse-splicing fitness was 0.02. Variant C82U A111U C169A U176A has a reverse-splicing fitness of 0.0141. Variant C82U A111U C169A U176G has a reverse-splicing fitness of 0.00543. C82U A120C A145U C150A C169U gave a reverse-splicing fitness of 0.00769. In the case of C82U A120C A145U C150A C169G, the reverse-splicing fitness is reported as 0.00588. For C82U A120C A145U C150A C169A, the reverse-splicing fitness was 0.00683. For C82U A120G A145C C150G C169G, the reverse-splicing fitness was 0.00837. In the case of C82U A120G A145C C150G C169U, the reverse-splicing fitness is reported as 0.00822. For C82U A120G A145C C150G C169A, the reverse-splicing fitness was 0.00904. Work on C82U A120C A145U C150G C169A U176A yielded a reverse-splicing fitness of 0.00958. C82U A120C A145U C150G C169A U176G gave a reverse-splicing fitness of 0.00423. For C82U A120C A145U C150G C169A U176C, the reverse-splicing fitness was 0.00716. C82U A120C A145G showed a reverse-splicing fitness of 0.169. Work on C82U A120C A145U yielded a reverse-splicing fitness of 0.155. C82U A120C A145C gave a reverse-splicing fitness of 0.149. C82U A111U C169G U176A showed a reverse-splicing fitness of 0.0162. Work on C82U A111U C169G U176G yielded a reverse-splicing fitness of 0.0052. In the case of C82U A111U C169G U176C, the reverse-splicing fitness is reported as 0.0183. With C82U A120G A145C C150A C169A U176A the reverse-splicing fitness was 0.0124. For C82U A120G A145C C150A C169A U176G, the reverse-splicing fitness was 0.00326. For C82U A120G A145C C150A C169A U176C, the reverse-splicing fitness was 0.0049. C82U A120C A145G C169A U176G gave a reverse-splicing fitness of 0.00317. In the case of C82U A120C A145G C169A U176C, the reverse-splicing fitness is reported as 0.0219. Work on C82U A120C A145G C169A U176A yielded a reverse-splicing fitness of 0.0158. With C82U A120C A145G C150A U176A the reverse-splicing fitness was 0.0152. C82U A120C A145G C150A U176C showed a reverse-splicing fitness of 0.0295. Variant C82U A120C A145G C150A U176G has a reverse-splicing fitness of 0.00716. Work on C82U A120G A145C C150A C169U U176A yielded a reverse-splicing fitness of 0.0218. In the case of C82U A120G A145C C150A C169U U176C, the reverse-splicing fitness is reported as 0.00972. Work on C82U A120G A145C C150A C169U U176G yielded a reverse-splicing fitness of 0.0041. C82U A120C A145C C150U C169G U176A showed a reverse-splicing fitness of 0.0142. With C82U A120C A145C C150U C169G U176C the reverse-splicing fitness was 0.00645. In the case of C82U A120C A145C C150U C169G U176G, the reverse-splicing fitness is reported as 0.00398.

Source: the RNAGym collection of RNA variant scans (doi:10.1093/molbev/msab373)
